Here are results for 3 molecules from US20060024667A1 (PRIMEX CLINICAL LABORATORIES, published 2006).

First the molecules themselves.
B1: HCDR3-derived synthetic peptide N44 (peptide)
peptide: ASVRGWYVRSVFDPA
notes: HCDR3 of clone b4.4 with an alanine at each end, without cysteines; linear; also called linear N44; linear peptide N44
B2: scrambled cyclic peptide ScrC44 (peptide)
peptide: CADWRYRSVFGPVSVAC
modifications: disulfide 1-17 (inferred); not fully specified
notes: Negative control; also called Scr44; cyclic peptide with scrambled amino acids

Positions of bridges follow the written chain, without caps; N, C: chain ends. No end group written: not given here.

In the experiment the target is T1, biotinylated Aβ42 (human, UniProt P05067 672-713, biotinylated (site not stated)).
T1 construct: domain: amyloid-beta peptide (Aβ42); Added in solution (PBS/1% BSA) to plates coated with the HCDR3-derived peptides; detected with avidin-peroxidase; also called Aβ42 (biotinylated)
T1 sequence (P05067 672-713 limits assumed): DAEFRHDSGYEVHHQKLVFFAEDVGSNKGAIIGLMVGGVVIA
In words: ELISA, peptide coated at 10 µg/ml, biotinylated Aβ42 in solution. In general terms: In an ELISA, binding on a coated surface is turned into a signal by an enzyme label.
Turning to IWGCSGKLICTTAVP (bridge 4-10 (inferred); also: cyclic via two Cys, bond not described, Negative control) [non-related cyclic peptide GM15], the binding result is “no binding”.

As to B1, the binding result is reported as “no binding”.

In the case of B2, the binding result is given as “no binding”.
